Source: patent US20240218065A1 (SHENGHE CHINA BIOPHARMACEUTICAL, published 2024)

T1: Human-NKP30-His (Kactus, cat: NKP-HM430) (human, UniProt O14931 19-138, limits assumed)
T1 construct: also called NKP30 protein; NKP30-his protein; not shown: His tag
T1 sequence (looked up): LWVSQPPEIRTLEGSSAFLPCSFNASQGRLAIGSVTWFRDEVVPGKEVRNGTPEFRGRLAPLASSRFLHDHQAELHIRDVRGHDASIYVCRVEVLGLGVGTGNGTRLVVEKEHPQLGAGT

T2: huCD24-humanFC (Acro, cat: CD4-H5254) (human, UniProt P25063 27-59)
T2 construct: also called CD24 protein; not shown: human Fc
T2 chain (looked up): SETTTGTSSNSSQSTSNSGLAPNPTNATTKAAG

B1: GN15-G (bispecific antibody, human IgG1, kappa)
light 1: QVQLVQSGAEVKKPGASVKVSCKASGYTFTDYEMHWVRQAPGQGLEWMGALDPKTGDTAYSQKFKGRVTLTADKSTSTAYMELSSLTSEDTAVYYCTRFYSYTYWGQGTLVTVSSRTVAAPSVFIFPPSDEQLKSGTASVVCLLNNFYPREAKVQWKVDNALQSGNSQESVTEQDSKDSTYSLSSTLTLSKADYEKHKVYACEVTHQGLSSPVTKSFNRGECGGGGSGGGGSGGGGSGGGGSEVQLVESGGGLVQPGGSLRLSCAASGITFSRSVMGWFRQAPGKLRELVAGITSDDNTDYADSVKGRFTISRDNSKNTLYLQMNSLRAEDTAVYYCNILPDSRLGWGQGTLVTVSS
heavy 1: not shown
heavy 2: QVQLVQSGAEVKKPGASVKVSCKASGYTFTDYEMHWVRQAPGQGLEWMGALDPKTGDTAYSQKFKGRVTLTADKSTSTAYMELSSLTSEDTAVYYCTRFYSYTYWGQGTLVTVSSASTKGPSVFPLAPSSKSTSGGTAALGCLVKDYFPEPVTVSWNSGALTSGVHTFPAVLQSSGLYSLSSVVTVPSSSLGTQTYICNVNHKPSNTKVDKKVEPKSCDKTHTCPPCPGGGGSGGGGSPALLLLLLLRPPATRGITCPPPMSVEHADIWVKSYSLYSRERYICNSGFKRKAGTSSLTECVLNKATNVAHWTTPSLKCIRDPALVHQRPAPPSTVTTAGVTPQPESLSPSGKEGGGGSGGGGSAPELLGGPSVFLFPPKPKDTLMISRTPEVTCVVVDVSHEDPEVKFNWYVDGVEVHNAKTKPREEQYNSTYRVVSVLTVLHQDWLNGKEYKCKVSNKALPAPIEKTISKAKGQPREPQVYTLPPSRDELTKNQVSLTCLVKGFYPSDIAVEWESNGQPENNYKTTPPVLDSDGSFFLASKLTVDKSRWQQGNVFSCSVMHEALHNHYTQKSLSLSPGK
light 2: DVVMTQSPLSLPVTPGEPASISCRSSQSLVHSNRNTYLHWYLQKPGQSPQLLIYKVSNRFSGVPDRFSGSGSGTDFTLKISRVEAEDVGVYYCSQNTHVPPTFGQGTKLEIKRTVAAPSVFIFPPSDEQLKSGTASVVCLLNNFYPREAKVQWKVDNALQSGNSQESVTEQDSKDSTYSLSSTLTLSKADYEKHKVYACEVTHQGLSSPVTKSFNRGEC
notes: Trifunctional antibody against GPC-3 and NKP30 with IL-15 and IL-15Rα sushi between CH1 and CH2; also called constructed antibody GN15-G; multifunctional antibody
B2: DN15-A (bispecific antibody, human IgG1, kappa)
light: EVQLVESGGGLVQPGGSLRLSCAASGITFSRSVMGWFRQAPGKLRELVAGITSDDNTDYADSVKGRFTISRDNSKNTLYLQMNSLRAEDTAVYYCNILPDSRLGWGQGTLVTVSSGGGGSGGGGSGGGGSDIQMTQSPSTLSASVGDRVTITCSASSSVSSMHWYQQKPGKAPKLLIYSTSNLASGVPSRFSGSGSGTEYTLTISSLQPDDFATYYCHHWTSYMYTFGGGTKVEIKRTVAAPSVFIFPPSDEQLKSGTASVVCLLNNFYPREAKVQWKVDNALQSGNSQESVTEQDSKDSTYSLSSTLTLSKADYEKHKVYACEVTHQGLSSPVTKSFNRGEC
heavy 1: not shown
heavy 2: QVQLVQSGSELKKPGASVKVSCKASGYIFTDYAIHWVRQAPGQGLEWMGFINTATGEPTYADDFKGRFVFSLDTSVSTAYLQISSLKAEDTAVYFCTSGVHWGQGTLVTVSSASTKGPSVFPLAPSSKSTSGGTAALGCLVKDYFPEPVTVSWNSGALTSGVHTFPAVLQSSGLYSLSSVVTVPSSSLGTQTYICNVNHKPSNTKVDKKVEPKSCDKTHTCPPCPGGGGSGGGGSPALLLLLLLRPPATRGITCPPPMSVEHADIWVKSYSLYSRERYICNSGFKRKAGTSSLTECVLNKATNVAHWTTPSLKCIRDPALVHQRPAPPSTVTTAGVTPQPESLSPSGKEGGGGSGGGGSAPELLGGPSVFLFPPKPKDTLMISRTPEVTCVVVDVSHEDPEVKFNWYVDGVEVHNAKTKPREEQYNSTYRVVSVLTVLHQDWLNGKEYKCKVSNKALPAPIEKTISKAKGQPREPQVYTLPPSRDELTKNQVSLTCLVKGFYPSDIAVEWESNGQPENNYKTTPPVLDSDGSFFLASKLTVDKSRWQQGNVFSCSVMHEALHNHYTQKSLSLSPGK
notes: Trifunctional antibody against CD24 and NKP30 with IL-15 and IL-15Rα sushi between CH1 and CH2; also called constructed antibody DN15-A; multifunctional antibody

Experiments:
[1] = biological target: T1, Human-NKP30-His (Kactus, cat: NKP-HM430); test: ELISA: Human-NKP30-His coated, antibody titrated 3-fold from 10 µg/mL, HRP goat anti-human IgG-Fc, OD450-OD570
Method: (§1) Human-NKP30-His (Kactus, cat: NKP-HM430) was diluted to 0.5 g/mL with PBS buffer at pH 7.4, added into the 96-well ELISA plate at 100 μL per well, coated overnight at 4° C., and blocked with 1% BSA blocking solution for 1 hour. The plate was washed 3 times with PBST, and the constructed antibodies were diluted to 10 μg/mL with 0.5% BSA sample diluent as the starting concentration, and then diluted by 3-fold gradient (11 gradients in total). A negative control (blank well and IgG1 isotype control) and a positive control were set, and the positive control was a NKP30 humanized antibody (sequence shown in SEQ ID No. 28), and incubated at 37° C. for 1 h at 100 μL per well. The plate was washed 3 times with PBST, and then HRP-labelled goat anti-human IgG-Fc was diluted with the sample diluent at 1:20000. 100 μL was added into each well, and incubated at room temperature for 1 hour. The plate was washed 4 times with PBST, and 100 μL of TMB substrate was added into each well, and incubated at room temperature without light for 10 minutes. 100 μL of 1 M HCl solution was added into each well to terminate the color development reaction. The absorbance value of each well in the 96-well plate was determined by selecting the wavelength of 450 nm and the reference wavelength of 570 nm on a multifunctional enzyme marker, and the absorbance value (OD)=OD₄₅₀ₙₘ−OD₅₇₀ₙₘ. The logarithm of the concentration of the constructed antibody was taken as the abscissa, and the measured absorbance value of each well was taken as the ordinate, and the Sigmoidaldose-response (Variable Slope) method (GraphPad Prism software, GraphPad Software, San Diego, California) was selected for nonlinear regression to obtain the binding curve of the target antibody to NKP30.

Human-GPC3-His = biological target: T3, Human-GPC3-His (human, UniProt P51654 25-559, limits assumed); test: ELISA: Human-GPC3-His coated at 0.5 µg/mL, antibody titrated 3-fold from 10 µg/mL, HRP goat anti-human IgG-Fc, OD450-OD570
T3 construct: Coated on the ELISA plate; also called GPC-3 protein; GPC3 protein; not shown: His tag
T3 sequence (P51654 25-559 limits assumed): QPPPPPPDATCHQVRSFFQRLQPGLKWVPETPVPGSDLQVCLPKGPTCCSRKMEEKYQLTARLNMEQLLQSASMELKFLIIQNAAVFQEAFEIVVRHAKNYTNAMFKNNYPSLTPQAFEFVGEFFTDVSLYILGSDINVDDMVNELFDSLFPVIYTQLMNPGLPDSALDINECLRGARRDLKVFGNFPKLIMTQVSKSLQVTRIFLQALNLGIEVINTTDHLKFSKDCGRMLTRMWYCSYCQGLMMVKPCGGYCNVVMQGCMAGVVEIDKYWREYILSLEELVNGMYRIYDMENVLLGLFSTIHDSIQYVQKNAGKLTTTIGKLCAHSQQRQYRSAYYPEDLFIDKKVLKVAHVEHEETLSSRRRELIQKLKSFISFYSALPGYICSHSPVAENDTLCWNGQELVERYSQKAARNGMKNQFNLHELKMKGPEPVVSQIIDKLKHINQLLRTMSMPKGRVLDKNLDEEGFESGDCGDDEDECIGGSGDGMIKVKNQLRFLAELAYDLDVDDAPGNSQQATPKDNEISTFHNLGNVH
Method: Human-GPC3-His was diluted to 0.5 μg/mL with PBS buffer at pH 7.4, added into the 96-well ELISA plate at 100 μL per well, coated overnight at 4° C., and blocked with 1% BSA blocking solution for 1 hour. The plate was washed 3 times with PBST, and the constructed antibody was diluted to 10 μg/mL with 0.5% BSA sample diluent as the starting concentration, and then diluted by 3-fold gradient (11 gradients in total) and incubated at 37° C. for 1 h at 100 μL per well. The plate was washed 3 times with PBST, and then HRP-labelled goat anti-human IgG-Fc was diluted with the sample diluent at 1:20000. 100 μL was added into each well, and incubated at room temperature for 1 hour. A negative control (blank well and IgG1 isotype control) and a positive control were set, and the positive control was a GPC-3 and CD3 bispecial antibody from the literature Hs, A, et al. “Engineering a bispecific antibody with a common light chain: Identification and optimization of an anti-CD3 epsilon and anti-GPC3 bispecific antibody, ERY974.” Methods 154 (2019): 10-20. (The GPC-3 and CD3 bispecial antibody sequence consists of SEQ ID No. 22, SEQ ID No. 23, and SEQ ID No. 24). The plate was washed 4 times with PBST, and 100 μL of TMB substrate was added into each well, and incubated at room temperature without light for 10 minutes. 100 μL of 1 M HCl solution was added into each well to terminate the color development reaction. The absorbance value of each well in the 96-well plate was determined by selecting the wavelength of 450 nm and the reference wavelength of 570 nm on a multifunctional enzyme marker, and the absorbance value (OD)=OD₄₅₀ₙₘ−OD₅₇₀ₙₘ. The logarithm of the concentration of the constructed antibody was taken as the abscissa, and the measured absorbance value of each well was taken as the ordinate, and the Sigmoidaldose-response (Variable Slope) method (GraphPad Prism software, GraphPad Software, San Diego, California) was selected for nonlinear regression to obtain the binding curve of the target antibody to the GPC-3 protein.

[2] = biological target: T1, Human-NKP30-His (Kactus, cat: NKP-HM430); test: ELISA: Human-NKP30-His coated at 0.2 µg/mL, antibody titrated 3-fold from 10 µg/mL (7 points), HRP goat anti-human IgG-Fc, OD450-OD570
Method: as §1, with “diluted to 0.2 μg/mL with PBS” for “diluted to 0.5 g/mL with PBS”, “the constructed expressing antibody was diluted to” for “the constructed antibodies were diluted to”, “3-fold gradient (7 gradients in” for “3-fold gradient (11 gradients in”, “control was the NKP30 humanized” for “control was a NKP30 humanized”

[3] = biological target: T2, huCD24-humanFC (Acro, cat: CD4-H5254); test: Bridging ELISA: huCD24-humanFC coated at 0.3 µg/mL, antibody titrated 3-fold from 20 µg/mL, then NKP30-his at 0.3 µg/mL, HRP anti-His antibody, OD450-OD570
Method: The huCD24-humanFC (Acro, cat: CD4-H5254) was diluted to 0.3 μg/mL with PBS buffer at pH 7.4, added into the 96-well ELISA plate at 100 μL per well, coated overnight at 4° C., and blocked with 1% BSA blocking solution for 1 hour. The plate was washed 3 times with PBST, and the purified antibody was diluted to 20 μg/mL with 0.5% BSA sample diluent as the starting concentration, and then diluted by 3-fold gradient (11 gradients in total). An irrelevant antibody was set as the negative control and incubated at 37° C. for 1 h at 50 μL per well. The plate was washed 3 times with PBST, and the NKP30-his protein was diluted to 0.3 μg/mL. 100 μL was added into each well, and incubated at room temperature for 1 h. The plate was washed 3 times with PBST, and then HRP-labelled his antibody was diluted with the sample diluent at 1:5000. 100 μL was added into each well, and incubated at room temperature for 1 h. The plate was washed 4 times with PBST, 100 μL of TMB substrate was added into each well, and incubated at room temperature without light for 10 min. 100 μL of 1 M HCl solution was added into each well to terminate the color development reaction. The absorbance value of each well in the 96-well plate was determined by selecting the wavelength of 450 nm and the reference wavelength of 570 nm on a multifunctional enzyme marker, and the absorbance value (OD)=OD₄₅₀ₙₘ−OD₅₇₀ₙₘ. The logarithm of antibody concentration was taken as the abscissa, and the measured absorbance value of each well was taken as the ordinate, and the Sigmoidaldose-response (Variable Slope) method (GraphPad Prism software, GraphPad Software, San Diego, California) was selected for nonlinear regression to obtain the binding curve of the target antibody to CD24 and NKP30 proteins at both ends.

Binder	EC50 (read off the curve) [1]	EC50 (read off the curve) (Human-GPC3-His)	binding result [2]	EC50 (read off the curve) [3]
B1	~0.03 mg/L	~0.01 mg/L		
B2			binds	~0.08 mg/L
